Test results: patent publication US20090202574A1, “METHODS OF IMMUNE OR HAEMATOLOGICAL ENHANCEMENT, INHIBITING TUMOUR FORMATION OR GROWTH, AND TREATING OR PREVENTING CANCER” (priority 2004, published 2009)

Assays:
LLC target cells = assay: Anti-tumour cytolytic activity of splenocytes against LLC target cells; format: in vivo, C57BL/6 mice; conditions: Example 18, FIG. 14B (epirubucin experiment), vs controls
Experimental: (§1) Splenocytes were tested for their cytolytic activity against tumour target cells. […] Referring to FIGS. 14B, D, and F the percent cytotoxicity is plotted against various effector-to-target cell ratios (E:T ratios); each point represents the mean percent cytotoxicity obtained from 5 mice; and the bar represents 95% confidence intervals.

B16 target cells = assay: Anti-tumour cytolytic activity of splenocytes against B16 target cells; format: in vivo, C57BL/6 mice; conditions: Example 18, FIG. 14D (fluorouracil experiment), vs controls
Experimental: as §1

EL-4 tumours = assay: Apoptotic index of tumour sections (TUNEL, annexin-V-fluos); format: in vivo, C57BL/6 mice; conditions: Example 7; vs mice fed control diet; P<0.001
Experimental: For in situ detection of apoptotic cells, tumors were excised and immediately frozen in dry ice, and stored at −70° C. Frozen serial sections of 6-μm thickness were fixed with paraformaldehyde solution (4% in PBS, pH 7.4), and permeabilized with a solution containing 0.1% Triton X-100 and 0.1% sodium citrate. They were incubated with 20 μl TUNEL reagent (In Situ apoptosis detection kit from Boehringer Mannheim, Germany) for 60 min at 37° C., and examined by fluorescence microscopy. Adjacent sections were counter-stained with haematoxylin to count the total number of cells, or the number of apoptotic cells in ten randomly selected fields (magnification of ×40). The apototic index (AI) was calculated as the number of apoptotic cells×100/total number of nucleated cells. For detection of apoptotic cells in vitro, the numbers of apoptotic and necrotic tumour cells were measured by staining with annexin-V-fluos, TUNEL, and trypan blue, as described previously (Kanwar, et al., 2001).
Sections were prepared from tumours of mice shown in FIGS. 4A and 4B at day 56 for the untreated control group fed the control diet, at day 70 for the groups fed either the control or iron-saturated bovine lactoferrin diet receiving paclitaxel and/or doxorubicin, and 7 days after treatment with drugs for mice fed the control diet. […]

[1] = Blood haematological profile (red and white blood cell counts); format: in vivo, mice; conditions: blood from the heart at autopsy; mean
Experimental: The red and white blood cell counts of mice sacrificed in the preceding examples were recorded. Oral feeding of bovine iron-saturated lactoferrin alone or in combination with administration of paclitaxel or doxorubicin or both increased the mean values of red and white blood cells compared to control mice and compared to mice administered paclitaxel and doxorubicin but not fed lactoferrin, as shown in Table 1.

[2] = tested on: Th1 (IL-18, TNF-α, IFN-γ) and Th2 (IL-4, IL-5, IL-6, IL-10) cytokines; assay: ELISA of Th1 and Th2 cytokines in intestine and tumour; format: in vivo, mice; conditions: Example 14
Experimental: (§2) Cytokine levels in the supernatants of homogenates of the small intestine were determined using a “sandwich” ELISA kit (Endogen, Woburn, Mass.). They were detected within standard curve ranges of 15-375 pg/ml for IL-4, 0-2450 pg/ml for IL-5, 15-1000 pg/ml for TNF-α, 0-3000 pg/ml for IFN-γ, 37-3000 pg/ml for IL-10, 31.3-2000 pg/ml for IL-12, and 31.3-2000 pg/ml for IL-18, respectively. Quantification of nitrite, indicative of NO production, was carried out by the Griess reaction (Sigma, USA). The results are expressed as the mean nitrite concentration (μM)±SD.
(§3) The ability of oral iron-saturated lactoferrin to affect the expression of a panel of Th1 and Th2 cytokines was examined in non-tumour-bearing mice, and in tumour-bearing mice fed iron-saturated bovine lactoferrin or the control diet, and treated with either paclitaxel or doxorubicin or a combination of the two drugs.

Nitrous oxide = assay: Nitrite (Griess reaction) at tumour site and in intestine; format: in vivo, mice; conditions: Example 14, P<0.001
Experimental: as §2, §3

[3] = tested on: cultured EL-4 tumour cells; assay: Apoptosis of cultured EL-4 tumour cells triggered by sera of fed mice; format: cell-based, C57BL/6 mice; conditions: Example 17; sera after 6 weeks of 28 g per 2.4 Kg diet; vs spontaneous apoptosis; control-diet sera 80%
Experimental: Feeding of Fe-saturated lactoferrin releases anti-tumour factors into the systemic circulation. Fifteen 8 to 9 week-old female C57BL/6 mice were fed the control AIN-93 diet or a diet supplemented with 28 g of 100% Fe-saturated lactoferrin per 2.4 Kg of diet. Sera was collected from experimental and control mice after 6 weeks of feeding the latter diets and tested for their ability to trigger the apoptosis of cultured EL-4 tumour cells.
Sera collected from experimental and control mice was tested for its ability to trigger the apoptosis of cultured EL-4 tumour cells. EL-4 cells (2×10^3) in 80 μl of DMEM media were incubated for 24 h in the presence or absence of 100 μl of sera that had been concentrated to 20 μl. The cells were then washed, permeabilized with a solution containing 0.1% Triton X-100 and 0.1% sodium citrate, and incubated with 20 μl of TUNEL reagent (In Situ apoptosis detection kit from Boehringer Mannheim, Germany) for 60 min at 37° C., and examined by fluorescence microscopy. Total numbers of cells were counted by staining the cells with methylene blue. The number of apoptotic cells was counted in ten randomly selected fields (magnification of ×40). The apototic index (AI) was calculated as the number of apoptotic cells×100/total number of nucleated cells.

B1: iron-saturated bovine lactoferrin: Iron-saturated bovine lactoferrin extract (100% saturated) prepared from natural bLf (protein)
chain: APRKNVRWCTISQPEWFKCRRWQWRMKKLGAPSITCVRRAFALECIRAIAEKKADAVTLDGGMVFEAGRDPYKLRPVAAEIYGTKESPQTHYYAVAVVKKGSNFQLDQLQGRKSCHTGLGRSAGWIIPMGILRPYLSWTESLEPLQGAVAKFFSASCVPCIDRQAYPNLCQLCKGEGENQCACSSREPYFGYSGAFKCLQDGAGDVAFVKETTVFENLPEKADRDQYELLCLNNSRAPVDAFKECHLAQVPSHAVVARSVDGKEDLIWKLLSKAQEKFGKNKSRSFQLFGSPPGQRDLLFKDSALGFLRIPSKVDSALYLGSRYLTTLKNLRETAEEVKARYTRVVWCAVGPEEQKKCQQWSQQSGQNVTCATASTTDDCIVLVLKGEADALNLDGGYIYTAGKCGLVPVLAENRKSSKHSSLDCVLRPTEGYLAVAVVKKANEGLTWNSLKDKKSCHTAVDRTAGWNIPMGLIVNQTGSCAFDEFFSQSCAPGADPKSRLCALCAGDDQGLDKCVPNSKEKYYGYTGAFRCLAEDVGDVAFVKNDTVWENTNGESTADWAKNLNREDFRLLCLDGTRKPVTEAQSCHLAVAPNHAVVSRSDRAAHVKQVLLHQQALFGKNGKNCPDKFCLFKSETKNLLFNDNTECLAKLGGRPTYEEYLGTEYVTAIANLKKCSTSPLLEACAFLTR
modifications: iron-saturated; Bovine Lactoferrin
notes: Iron-saturated bovine lactoferrin extract (100% saturated) prepared from natural bLf
increase in anti-tumour cytolytic activity (LLC target cells): 150%
increase in anti-tumour cytolytic activity (B16 target cells): 45%
increase in the apoptotic index of tumours (EL-4 tumours): 1.9 fold
RBCs [1]: 8.2 ± 2.5 ×10^6/mm^3
WBCs [1]: 3.5 ± 1.2 ×10^3/mm^3
cytokines within the tumor site [2]: increased the presence of all cytokines
levels of IL-18 and IL-10 in tumour-bearing mice relative to non-tumour-bearing mice ([2]; oral feeding): less than half
increase in nitrous oxide (Nitrous oxide): 3 to 4 fold
increase in tumour cell apoptosis induced by sera [3]: 300%
